Article PMC7998035

Tests used:
Assay in all cases: ELISA; ECM protein coated on the plate (100 nM in PBS, 1 h, 37 °C), blocked with 1% BSA in PBS-T; IL-1Ra or PDGF-BB variants at 0 to 100 nM in PBS-T with 0.1% BSA, 1 h, room temperature; bound protein detected with biotinylated antibodies (DuoSet); specific binding fitted with a one site-specific binding model; means of 3 independent experiments
[1] = molecular target: human vitronectin (human) (UniProt P04004)
human tenascin C (human) = human tenascin C (human) (UniProt P24821)
[2] = molecular target: human plasma fibronectin (human)
Chain of human plasma fibronectin (human) (P02751 other isoform, or with tags, fused parts or gaps): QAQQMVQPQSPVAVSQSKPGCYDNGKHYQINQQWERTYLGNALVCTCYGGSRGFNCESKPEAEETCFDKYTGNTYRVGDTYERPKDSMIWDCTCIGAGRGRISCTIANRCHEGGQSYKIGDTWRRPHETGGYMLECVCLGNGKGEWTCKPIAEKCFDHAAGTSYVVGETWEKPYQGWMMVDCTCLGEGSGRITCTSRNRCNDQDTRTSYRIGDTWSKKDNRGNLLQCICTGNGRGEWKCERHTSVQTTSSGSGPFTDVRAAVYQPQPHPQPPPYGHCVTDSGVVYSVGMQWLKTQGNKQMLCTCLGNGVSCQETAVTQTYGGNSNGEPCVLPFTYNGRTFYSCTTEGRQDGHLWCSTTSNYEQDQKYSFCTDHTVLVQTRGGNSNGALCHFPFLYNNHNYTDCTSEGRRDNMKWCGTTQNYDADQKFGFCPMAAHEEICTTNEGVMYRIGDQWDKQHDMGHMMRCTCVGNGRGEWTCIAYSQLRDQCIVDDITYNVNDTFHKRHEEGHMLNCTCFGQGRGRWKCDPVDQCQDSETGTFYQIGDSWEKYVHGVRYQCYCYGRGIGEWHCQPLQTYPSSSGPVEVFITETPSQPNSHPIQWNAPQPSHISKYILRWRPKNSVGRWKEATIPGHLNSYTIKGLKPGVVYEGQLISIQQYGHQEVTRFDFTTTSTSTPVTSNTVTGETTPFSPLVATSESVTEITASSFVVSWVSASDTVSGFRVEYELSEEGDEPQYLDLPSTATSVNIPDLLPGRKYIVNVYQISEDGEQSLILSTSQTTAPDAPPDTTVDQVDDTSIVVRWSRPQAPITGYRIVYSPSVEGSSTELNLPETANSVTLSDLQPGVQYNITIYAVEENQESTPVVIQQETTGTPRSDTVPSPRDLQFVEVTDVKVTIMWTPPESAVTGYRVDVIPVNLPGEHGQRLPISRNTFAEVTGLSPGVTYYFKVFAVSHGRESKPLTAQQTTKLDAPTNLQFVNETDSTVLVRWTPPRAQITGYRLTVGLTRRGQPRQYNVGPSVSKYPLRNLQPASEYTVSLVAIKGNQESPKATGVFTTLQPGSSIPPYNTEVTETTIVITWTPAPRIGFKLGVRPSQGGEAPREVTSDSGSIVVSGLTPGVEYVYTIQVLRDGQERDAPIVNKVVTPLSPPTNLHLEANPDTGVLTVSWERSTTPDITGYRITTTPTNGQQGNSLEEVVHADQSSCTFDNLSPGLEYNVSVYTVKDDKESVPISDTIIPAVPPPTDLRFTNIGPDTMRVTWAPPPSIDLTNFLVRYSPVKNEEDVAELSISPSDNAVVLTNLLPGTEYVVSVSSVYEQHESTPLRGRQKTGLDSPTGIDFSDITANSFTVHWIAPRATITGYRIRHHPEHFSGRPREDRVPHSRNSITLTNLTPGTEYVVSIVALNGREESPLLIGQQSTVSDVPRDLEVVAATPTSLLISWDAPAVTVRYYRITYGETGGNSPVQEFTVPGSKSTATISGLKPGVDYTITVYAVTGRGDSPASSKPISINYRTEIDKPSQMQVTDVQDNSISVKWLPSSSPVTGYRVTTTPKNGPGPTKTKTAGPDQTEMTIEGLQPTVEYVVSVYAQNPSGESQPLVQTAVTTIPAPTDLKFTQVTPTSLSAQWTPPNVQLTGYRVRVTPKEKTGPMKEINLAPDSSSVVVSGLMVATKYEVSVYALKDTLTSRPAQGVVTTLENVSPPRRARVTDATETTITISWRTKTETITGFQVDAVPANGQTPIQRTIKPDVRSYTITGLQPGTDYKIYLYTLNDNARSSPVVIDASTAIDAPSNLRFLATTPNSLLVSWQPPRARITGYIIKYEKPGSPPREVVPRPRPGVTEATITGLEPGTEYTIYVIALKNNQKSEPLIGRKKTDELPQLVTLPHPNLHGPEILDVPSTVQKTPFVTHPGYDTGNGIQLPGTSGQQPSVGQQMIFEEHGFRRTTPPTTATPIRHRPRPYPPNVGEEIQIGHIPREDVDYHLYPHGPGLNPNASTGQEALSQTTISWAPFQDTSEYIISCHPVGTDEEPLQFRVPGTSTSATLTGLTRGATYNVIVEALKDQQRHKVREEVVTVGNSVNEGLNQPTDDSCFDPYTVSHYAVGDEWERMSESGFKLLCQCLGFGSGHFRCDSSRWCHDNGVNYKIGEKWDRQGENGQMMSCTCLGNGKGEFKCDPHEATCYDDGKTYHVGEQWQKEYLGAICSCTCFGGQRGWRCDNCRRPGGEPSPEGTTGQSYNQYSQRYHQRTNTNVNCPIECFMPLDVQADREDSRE

Chain of human tenascin C (human) (P24821 23-2201): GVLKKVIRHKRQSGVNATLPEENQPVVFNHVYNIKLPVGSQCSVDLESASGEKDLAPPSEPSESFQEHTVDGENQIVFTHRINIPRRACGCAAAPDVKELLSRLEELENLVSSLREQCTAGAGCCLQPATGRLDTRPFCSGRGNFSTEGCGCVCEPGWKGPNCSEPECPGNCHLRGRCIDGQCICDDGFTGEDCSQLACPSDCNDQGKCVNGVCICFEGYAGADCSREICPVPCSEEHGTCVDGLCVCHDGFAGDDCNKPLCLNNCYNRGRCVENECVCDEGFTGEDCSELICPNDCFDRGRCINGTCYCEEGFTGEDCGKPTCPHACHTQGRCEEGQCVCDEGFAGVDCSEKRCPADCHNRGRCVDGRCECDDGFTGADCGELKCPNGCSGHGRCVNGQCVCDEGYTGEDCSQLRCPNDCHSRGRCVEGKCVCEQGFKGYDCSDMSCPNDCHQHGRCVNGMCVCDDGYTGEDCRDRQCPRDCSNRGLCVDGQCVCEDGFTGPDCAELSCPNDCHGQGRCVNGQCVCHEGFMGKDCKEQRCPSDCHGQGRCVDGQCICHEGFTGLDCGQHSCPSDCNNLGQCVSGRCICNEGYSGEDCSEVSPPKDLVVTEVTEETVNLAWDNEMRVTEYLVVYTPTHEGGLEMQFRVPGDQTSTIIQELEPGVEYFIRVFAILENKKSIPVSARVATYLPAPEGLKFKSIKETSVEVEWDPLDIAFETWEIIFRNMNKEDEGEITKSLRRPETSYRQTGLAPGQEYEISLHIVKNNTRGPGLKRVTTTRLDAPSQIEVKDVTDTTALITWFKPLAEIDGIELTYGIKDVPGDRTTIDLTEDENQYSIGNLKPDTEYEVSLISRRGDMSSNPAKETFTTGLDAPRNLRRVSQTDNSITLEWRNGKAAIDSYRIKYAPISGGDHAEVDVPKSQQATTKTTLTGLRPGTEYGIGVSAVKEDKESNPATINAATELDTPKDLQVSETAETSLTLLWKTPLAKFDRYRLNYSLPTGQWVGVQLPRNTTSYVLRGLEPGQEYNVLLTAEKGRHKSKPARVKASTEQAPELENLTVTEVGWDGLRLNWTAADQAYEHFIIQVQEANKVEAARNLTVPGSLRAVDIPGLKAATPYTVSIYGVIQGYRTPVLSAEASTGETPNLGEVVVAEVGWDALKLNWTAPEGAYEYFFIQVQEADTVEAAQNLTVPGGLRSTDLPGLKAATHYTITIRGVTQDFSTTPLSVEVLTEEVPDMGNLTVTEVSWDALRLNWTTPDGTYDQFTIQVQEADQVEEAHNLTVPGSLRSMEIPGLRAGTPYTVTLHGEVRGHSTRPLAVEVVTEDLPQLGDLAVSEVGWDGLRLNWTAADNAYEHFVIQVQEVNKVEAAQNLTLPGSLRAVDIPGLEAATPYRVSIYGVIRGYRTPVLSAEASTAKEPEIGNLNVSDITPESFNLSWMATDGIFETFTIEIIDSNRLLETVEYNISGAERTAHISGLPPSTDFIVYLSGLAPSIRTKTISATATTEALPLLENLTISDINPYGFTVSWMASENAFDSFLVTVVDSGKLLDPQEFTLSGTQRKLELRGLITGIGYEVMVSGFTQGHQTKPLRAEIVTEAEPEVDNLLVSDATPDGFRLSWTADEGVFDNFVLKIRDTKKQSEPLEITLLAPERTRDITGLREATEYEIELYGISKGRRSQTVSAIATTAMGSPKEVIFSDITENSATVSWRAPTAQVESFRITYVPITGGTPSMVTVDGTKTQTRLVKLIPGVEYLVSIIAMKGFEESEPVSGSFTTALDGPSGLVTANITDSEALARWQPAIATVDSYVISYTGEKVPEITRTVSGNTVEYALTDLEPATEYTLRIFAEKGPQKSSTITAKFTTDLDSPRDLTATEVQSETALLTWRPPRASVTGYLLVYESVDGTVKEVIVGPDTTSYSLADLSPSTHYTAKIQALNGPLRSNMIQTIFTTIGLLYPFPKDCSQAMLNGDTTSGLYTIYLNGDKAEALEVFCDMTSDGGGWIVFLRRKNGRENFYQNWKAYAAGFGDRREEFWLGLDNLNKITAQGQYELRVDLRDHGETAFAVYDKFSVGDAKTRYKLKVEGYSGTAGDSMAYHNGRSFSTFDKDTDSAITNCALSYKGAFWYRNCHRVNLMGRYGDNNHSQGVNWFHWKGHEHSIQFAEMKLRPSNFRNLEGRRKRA
Chain of human vitronectin (human) (P04004 20-478): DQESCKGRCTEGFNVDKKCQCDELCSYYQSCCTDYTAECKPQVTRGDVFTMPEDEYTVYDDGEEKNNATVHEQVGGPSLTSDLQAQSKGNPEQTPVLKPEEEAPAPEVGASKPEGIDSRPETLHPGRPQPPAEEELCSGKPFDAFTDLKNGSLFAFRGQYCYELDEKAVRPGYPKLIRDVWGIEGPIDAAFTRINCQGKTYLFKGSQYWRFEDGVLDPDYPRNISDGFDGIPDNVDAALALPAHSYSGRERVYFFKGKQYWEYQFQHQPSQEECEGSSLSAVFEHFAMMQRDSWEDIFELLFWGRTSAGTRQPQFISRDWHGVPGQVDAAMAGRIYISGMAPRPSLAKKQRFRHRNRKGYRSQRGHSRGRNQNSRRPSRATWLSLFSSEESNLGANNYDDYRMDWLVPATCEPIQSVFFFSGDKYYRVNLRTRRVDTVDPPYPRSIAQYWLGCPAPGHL

Kd [1] [nM] | Kd (human tenascin C (human)) [nM] | Kd [2] [nM] | Substance
0.7 | 20.3 |  | IL-1Ra/PlGF123-141
 |  | 21.9 | IL-1Ra/PlGF123-141 (other; other documents disagree on this pair)
 |  | 17.7 | PDGF-BB/PlGF123-141 (other; other documents disagree on this pair)
1.4 | 25 |  | PDGF-BB/PlGF123-141
